Results as given in the supplement of paper PMC9112550, “Optimization of the antimicrobial peptide Bac7 by deep mutational scanning” (BMC Biology, 2022).

Each sequence was assayed on Escherichia coli TOP10 (assay: shrunken log2 fold change of peptide-encoding DNA abundance (4.5 h post-induction vs induction); higher = less antimicrobial activity (less host growth inhibition)). Details: time post-induction: 4.5 h; library: site-saturation at positions 5, 18, 19, 20.
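Further: peptides expressed intracellularly from a pBAD plasmid library in pooled LB shake-flask culture, induced with 0.3% L-arabinose, DNA abundance read by NGS, three biological replicates, DESeq2 with apeglm shrinkage.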

| Sequence | shrunken log2 fold change |
| --- | --- |
| RRIRARPPRLPRPRPRPVLKPRP | 0.22 |
| RRIRARPPRLPRPRPRPVLMPRP | 0.199 |
| RRIRARPPRLPRPRPRPVMGPRP | 0.177 |
| RRIRARPPRLPRPRPRPVMNPRP | -0.0562 |
| RRIRARPPRLPRPRPRPVPEPRP | 0.499 |
| RRIRARPPRLPRPRPRPVPGPRP | 0.672 |
| RRIRARPPRLPRPRPRPVPTPRP | 0.57 |
| RRIRARPPRLPRPRPRPVQHPRP | 0.555 |
| RRIRARPPRLPRPRPRPVQLPRP | 0.101 |
| RRIRARPPRLPRPRPRPVRYPRP | 2.39 |
| RRIRARPPRLPRPRPRPVSMPRP | 0.229 |
| RRIRARPPRLPRPRPRPVTGPRP | 0.301 |
| RRIRARPPRLPRPRPRPVTMPRP | 0.102 |
| RRIRARPPRLPRPRPRPVVQPRP | 0.511 |
| RRIRARPPRLPRPRPRPVWGPRP | 0.383 |
| RRIRARPPRLPRPRPRPVWKPRP | 0.125 |
| RRIRARPPRLPRPRPRPVWVPRP | 0.321 |
| RRIRARPPRLPRPRPRPWAAPRP | 0.239 |
| RRIRARPPRLPRPRPRPWAMPRP | 0.0453 |
| RRIRARPPRLPRPRPRPWANPRP | 0.201 |
| RRIRARPPRLPRPRPRPWCCPRP | 0.104 |
| RRIRARPPRLPRPRPRPWCYPRP | -0.306 |
| RRIRARPPRLPRPRPRPWFQPRP | 0.0762 |
| RRIRARPPRLPRPRPRPWFSPRP | -0.00399 |
| RRIRARPPRLPRPRPRPWFTPRP | -0.316 |

| Sequence | shrunken log2 fold change |
| --- | --- |
| RRIRARPPRLPRPRPRPWGMPRP | -0.00469 |
| RRIRARPPRLPRPRPRPWGPPRP | -0.119 |
| RRIRARPPRLPRPRPRPWHGPRP | 0.0697 |
| RRIRARPPRLPRPRPRPWKMPRP | -0.235 |
| RRIRARPPRLPRPRPRPWKPPRP | 4.26e-05 |
| RRIRARPPRLPRPRPRPWLCPRP | 0.116 |
| RRIRARPPRLPRPRPRPWLHPRP | 0.144 |
| RRIRARPPRLPRPRPRPWLQPRP | -0.0599 |
| RRIRARPPRLPRPRPRPWMTPRP | -0.141 |
| RRIRARPPRLPRPRPRPWNCPRP | 0.132 |
| RRIRARPPRLPRPRPRPWNLPRP | -0.0204 |
| RRIRARPPRLPRPRPRPWNNPRP | -1.02 |
| RRIRARPPRLPRPRPRPWNVPRP | -0.181 |
| RRIRARPPRLPRPRPRPWPFPRP | -0.0236 |
| RRIRARPPRLPRPRPRPWPGPRP | 0.266 |
| RRIRARPPRLPRPRPRPWPPPRP | 0.887 |
| RRIRARPPRLPRPRPRPWQFPRP | 0.456 |
| RRIRARPPRLPRPRPRPWRFPRP | 0.323 |
| RRIRARPPRLPRPRPRPWTLPRP | -0.256 |
| RRIRARPPRLPRPRPRPWTNPRP | 0.124 |
| RRIRARPPRLPRPRPRPWVIPRP | -0.296 |
| RRIRARPPRLPRPRPRPYANPRP | -0.165 |
| RRIRARPPRLPRPRPRPYDYPRP | -0.282 |
| RRIRARPPRLPRPRPRPYENPRP | -0.0975 |
| RRIRARPPRLPRPRPRPYEQPRP | 0.0674 |

| Sequence | shrunken log2 fold change |
| --- | --- |
| RRIRARPPRLPRPRPRPYFLPRP | -0.557 |
| RRIRARPPRLPRPRPRPYGRPRP | 0.0766 |
| RRIRARPPRLPRPRPRPYGVPRP | -0.12 |
| RRIRARPPRLPRPRPRPYHCPRP | -0.0366 |
| RRIRARPPRLPRPRPRPYHFPRP | -0.186 |
| RRIRARPPRLPRPRPRPYHPPRP | -0.482 |
| RRIRARPPRLPRPRPRPYKNPRP | -0.524 |
| RRIRARPPRLPRPRPRPYLMPRP | -0.648 |
| RRIRARPPRLPRPRPRPYLNPRP | -0.914 |
| RRIRARPPRLPRPRPRPYLTPRP | -0.655 |
| RRIRARPPRLPRPRPRPYMPPRP | -0.829 |
| RRIRARPPRLPRPRPRPYPNPRP | -0.257 |
| RRIRARPPRLPRPRPRPYQQPRP | -0.316 |
| RRIRARPPRLPRPRPRPYSWPRP | -0.0849 |
| RRIRCRPPRLPRPRPRPAAAPRP | 0.528 |
| RRIRCRPPRLPRPRPRPAANPRP | 0.0789 |
| RRIRCRPPRLPRPRPRPAATPRP | 0.776 |
| RRIRCRPPRLPRPRPRPAAWPRP | 0.252 |
| RRIRCRPPRLPRPRPRPAEAPRP | 0.12 |
| RRIRCRPPRLPRPRPRPAFCPRP | 0.172 |
| RRIRCRPPRLPRPRPRPAGLPRP | 0.206 |
| RRIRCRPPRLPRPRPRPAGNPRP | 0.0404 |
| RRIRCRPPRLPRPRPRPAHWPRP | 0.337 |
| RRIRCRPPRLPRPRPRPAIGPRP | -0.135 |
| RRIRCRPPRLPRPRPRPAKMPRP | 0.104 |
